Results published in patent US6030780, “Purified Stat proteins and methods of purifying thereof” (The Rockefeller University).

Experiments:
[1] = molecular target: Stat1tc, phosphorylated Tyr701 (Homo sapiens) (UniProt P42224); test: EMSA
[2] = molecular target: T1, Stat1alpha, phosphorylated Tyr701 (Homo sapiens, UniProt P42224 P42224:1-750); test: EMSA; stabilization indistinguishable from 10 bp spacing; settings: tags: baculovirus/Sf9; NEM-alkylated; phosphorylated in vitro by EGF-receptor kinase; chain copies: 2; label: 32P; protruding 5'-TCC; two tandem sites
Protocol: (§1) Under the reaction conditions described above, each oligonucleotide (at 2×10^-9 M or otherwise stated) was mixed with 0.55×10^-9 M dimer of purified phosphorylated Stat1 protein. The reaction volume was scaled up to 100 μl. The reaction was incubated for 5–15 min at room temperature and for time zero, an aliquot (10 μl) was removed and loaded directly onto a pre-run polyacrylamide gel (see above). Afterwards, a 100×molar excess of homologous unlabelled DNA (in less than 1% of the reaction volume) was added. At subsequent time points (indicated in FIGS. 5C–5D, and 7) 10 μl aliquots were withdrawn and also loaded onto the running gel (at 10 V/cm). After entering the final time point (after 30–45 min), electrophoresis was continued at 20 V/cm until the unbound labelled DNA-fraction reached the bottom of the gel. Gels were dried, exposed to X-ray film and labelled protein/DNA complexes and unbound labelled DNA were quantitated as described above. The half life was determined from a semi-log plot of the numerical data (shifted radioactivity over shifted radioactivity at time zero versus time). For many sequences studied, the half life was too short ([…]) to be determined by EMSA. All experiments were performed at least twice with the different oligonucleotides.
Figure 7B: FIG. 7B. […]

[3] = molecular target: T1, Stat1alpha, phosphorylated Tyr701; test: EMSA; apparent Keq, dimer; 40 mM KCl, 10 mM MgCl2, 10 mM CaCl2, RT; complex half-life <0.5 min; settings: tags: baculovirus/Sf9; NEM-alkylated; phosphorylated in vitro by EGF-receptor kinase; chain copies: 2; label: 32P; protruding 5'-TCC
[4] = molecular target: T1, Stat1alpha, phosphorylated Tyr701; test: EMSA; 2x(dimer) complex stable, >30 min for partial displacement by 100x competitor; settings: tags: baculovirus/Sf9; NEM-alkylated; phosphorylated in vitro by EGF-receptor kinase; chain copies: 2; label: 32P; protruding 5'-TCC; two tandem sites
Protocol: as §1, with “oligonucleotides. […]” for “oligonucleotides.”

[5] = molecular target: Stat1beta, phosphorylated Tyr701 (Homo sapiens, UniProt P42224-2 P42224-2:1-712); test: EMSA; 2x(dimer) complex stabilized as with Stat1alpha; settings: tags: baculovirus/Sf9; NEM-alkylated; phosphorylated in vitro by EGF-receptor kinase; chain copies: 2; label: 32P; protruding 5'-TCC; two tandem sites
[6] = molecular target: T1, Stat1alpha, phosphorylated Tyr701; test: EMSA; binding unaffected by NEM alkylation; no difference from Stat1tc in off-rate; settings: tags: baculovirus/Sf9; NEM-alkylated; phosphorylated in vitro by EGF-receptor kinase; chain copies: 2; label: 32P; protruding 5'-TCC
Excerpt: Figure 3A: FIG. 3A. DNA binding of purified phosphorylated Stat1α (lane 1) and Stat1tc (lane 2) using as a probe the radioactively labelled cfosWT sequence. Binding reactions contained equimolar amounts of the respective proteins. The position of migration of the free DNA probe (free) and the protein/DNA complex (bound) is indicated. Note the presence of a slower migrating band only with the full length Stat1α, lane 1 (see also FIG. 3B). Figure 3B: FIG. 3B. Influence of cysteine alkylation on the DNA binding activity of Stat1α. A mixture of phosphorylated and unphosphorylated protein (0.23 µM final; ~15% phosphoprotein) was reacted in the presence of 0.8 mM DTT and the indicated concentrations of N-ethyl-maleimide (NEM) for 20 min at room temperature in a volume of 12.5 µl. The reaction was stopped with DTT (final concentration of 10 mM) followed by the addition of 1.5 pmoles of labelled probe (cfosM67). Samples were resolved on a 4.5% native polyacrylamide gel. (M) denotes the position of bromophenol blue (lower) and xylene cyanol (upper) markers.
Electrophoretic mobility shift assays (EMSA) (Fried and Crothers, 1981; Garner and Revzin, 1981) were used to test DNA binding of tyrosine phosphorylated Stat1α and Stat1tc. […] In addition, the DNA binding ability of homodimeric phosphorylated Stat1α or its truncated form was highly resistant to up to 2 Molar monovalent salt concentrations.

T1 sequence (P42224 whole entry, one chain of several): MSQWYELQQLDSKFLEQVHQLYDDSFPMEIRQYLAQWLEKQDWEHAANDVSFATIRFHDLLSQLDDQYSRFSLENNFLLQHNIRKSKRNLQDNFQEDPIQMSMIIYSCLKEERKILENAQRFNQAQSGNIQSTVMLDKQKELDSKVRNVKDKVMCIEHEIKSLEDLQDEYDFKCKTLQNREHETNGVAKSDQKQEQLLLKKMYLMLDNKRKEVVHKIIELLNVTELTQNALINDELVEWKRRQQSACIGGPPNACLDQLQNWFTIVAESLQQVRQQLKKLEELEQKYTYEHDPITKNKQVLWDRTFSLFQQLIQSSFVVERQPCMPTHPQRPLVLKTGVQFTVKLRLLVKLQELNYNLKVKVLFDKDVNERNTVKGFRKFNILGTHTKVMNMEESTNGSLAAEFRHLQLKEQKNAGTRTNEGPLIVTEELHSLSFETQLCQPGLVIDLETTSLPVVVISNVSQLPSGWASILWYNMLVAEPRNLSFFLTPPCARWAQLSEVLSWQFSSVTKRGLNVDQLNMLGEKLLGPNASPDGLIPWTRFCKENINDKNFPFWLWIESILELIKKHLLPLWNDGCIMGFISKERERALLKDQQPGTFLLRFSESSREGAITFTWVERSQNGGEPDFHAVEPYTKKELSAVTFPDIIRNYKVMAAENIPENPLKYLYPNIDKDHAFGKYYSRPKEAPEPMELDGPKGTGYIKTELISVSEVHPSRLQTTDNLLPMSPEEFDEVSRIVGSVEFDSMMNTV
Stat1tc, phosphorylated Tyr701 (Homo sapiens), sequence (P42224 whole entry): as the sequence (P42224 whole entry, one chain of several) above
Stat1beta, phosphorylated Tyr701, sequence (P42224 1-712, one chain of several): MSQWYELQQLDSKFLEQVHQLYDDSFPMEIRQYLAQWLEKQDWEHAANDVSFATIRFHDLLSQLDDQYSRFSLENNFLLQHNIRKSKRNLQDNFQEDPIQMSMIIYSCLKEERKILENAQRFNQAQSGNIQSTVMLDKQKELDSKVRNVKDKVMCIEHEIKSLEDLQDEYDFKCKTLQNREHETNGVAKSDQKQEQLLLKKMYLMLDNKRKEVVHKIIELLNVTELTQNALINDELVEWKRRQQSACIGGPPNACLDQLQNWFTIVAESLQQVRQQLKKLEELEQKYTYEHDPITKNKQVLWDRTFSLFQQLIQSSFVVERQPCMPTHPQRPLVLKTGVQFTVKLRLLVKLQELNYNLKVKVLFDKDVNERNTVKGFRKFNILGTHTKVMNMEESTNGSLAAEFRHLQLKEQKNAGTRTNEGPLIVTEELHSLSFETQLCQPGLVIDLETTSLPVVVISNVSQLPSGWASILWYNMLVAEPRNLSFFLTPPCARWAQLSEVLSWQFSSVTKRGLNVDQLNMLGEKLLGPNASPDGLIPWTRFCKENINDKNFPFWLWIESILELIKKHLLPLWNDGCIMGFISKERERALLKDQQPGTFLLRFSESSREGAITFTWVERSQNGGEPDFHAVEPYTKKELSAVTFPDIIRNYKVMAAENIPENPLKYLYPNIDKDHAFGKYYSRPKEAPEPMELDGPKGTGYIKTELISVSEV

GTATTCCTGTAAGATCT (double strand) [Ly6E]
Kd ([1]; dimer concentration at half saturation, weak site): 1 nM

GTATTCCCGTCAATGCA (double strand) [cfosWT]
Kd ([1]; apparent Keq, dimer, 40 mM KCl, 10 mM MgCl2, 10 mM CaCl2, RT): 1 nM

GATTTCCCGTAAATCAT (double strand) [cfosM67]
Kd ([1]; stated as same result for several oligonucleotides, complex half-life about 3 min (FIG. 5D)): 1 nM

GTTGTTCCGGGAAAAGG (double strand) [S1]
Kd ([1]; dimer concentration at half saturation, strong site): 1 nM

B1: 2x cfosWT (15 bp spacing) (dsDNA)
DNA 1: AGTCAGTTCCCGTCAATGATCGCTACAGAGTTCCCGTCAAGCA
DNA 2: TGCTTGACGGGAACTCTGTAGCGATCATTGACGGGAACTGACT
binding result [2]: binds

B2: cfosWT (dsDNA)
DNA 1: GTATTCCCGTCAATGCA
DNA 2: TGCATTGACGGGAATAC
Kd [3]: ~1 nM

B3: 2x cfosWT (10 bp spacing) (dsDNA)
DNA 1: AGTCAGTTCCCGTCAATGCATCAGGTTCCCGTCAATGCAT
DNA 2: ATGCATTGACGGGAACCTGATGCATTGACGGGAACTGACT
binding result [4]: binds | binding result [5]: binds

B4: cfosM67 (dsDNA)
DNA 1: GATTTCCCGTAAATCAT
DNA 2: ATGATTTACGGGAAATC
binding result [6]: binds
